Values of other authors in patent US9486409B2, “Peptide nanoparticles and uses therefor” (Anterios, Inc., priority 2006, dated 2016).

Details: unmodified peptide, prior studies (Katayama et al.)

Substance: KTTKS (peptide that may promote extra-cellular matrix production) [unmodified pentapeptide known to promote extra-cellular matrix production]
- penetration of intact skin: cannot penetrate the intact skin without chemical modification
